Test results as given in paper PMC9842190 (Seminars in immunology, 2022).

B1: C-terminal domain of the Staphylococcus aureus immune evasion protein Efb (domain or fragment)
chain: TDATIKKEQKLIQAQNLVREFEKTHTVSAHRKAQKAVNLVSFEYKVKKMVLQERIDNVLKQGLV
B2: CCP domains 19-20 of human Factor H (domain or fragment)
chain: GKCGPPPPIDNGDITSFPLSVYAPASSVEYQCQNLYQLEGNKRITCRNGQWSEPPKCLHPCVISREIMENYNIALRWTAKQKLYSRTGESVEFVCKRGYRLSSRSHTLRTTCWDGKLEYPTCAKR

Key:
[1] = biological target: T1, Human C3b, site-specifically biotinylated at its thioester cysteine (human, UniProt P01024 23-667; P01024 749-1663); test: SPR
T1 sequence (P01024 23-667, chain 1 of 2): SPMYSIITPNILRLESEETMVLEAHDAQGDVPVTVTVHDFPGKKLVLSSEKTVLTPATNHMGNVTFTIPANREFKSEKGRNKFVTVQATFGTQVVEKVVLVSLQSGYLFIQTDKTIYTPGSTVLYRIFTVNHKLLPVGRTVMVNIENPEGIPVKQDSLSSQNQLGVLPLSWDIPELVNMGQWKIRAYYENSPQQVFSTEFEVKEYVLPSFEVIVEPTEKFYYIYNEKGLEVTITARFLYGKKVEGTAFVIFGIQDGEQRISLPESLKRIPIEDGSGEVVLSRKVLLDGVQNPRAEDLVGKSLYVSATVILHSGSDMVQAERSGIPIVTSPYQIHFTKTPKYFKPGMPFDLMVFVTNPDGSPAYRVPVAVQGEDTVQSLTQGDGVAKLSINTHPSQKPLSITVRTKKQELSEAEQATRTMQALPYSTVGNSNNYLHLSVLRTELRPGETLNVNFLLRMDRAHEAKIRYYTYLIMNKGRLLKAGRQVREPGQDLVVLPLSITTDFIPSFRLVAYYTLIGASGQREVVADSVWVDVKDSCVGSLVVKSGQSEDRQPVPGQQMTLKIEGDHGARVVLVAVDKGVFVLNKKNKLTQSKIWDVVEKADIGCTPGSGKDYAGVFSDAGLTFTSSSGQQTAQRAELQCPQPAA
T1 sequence (P01024 749-1663, chain 2 of 2): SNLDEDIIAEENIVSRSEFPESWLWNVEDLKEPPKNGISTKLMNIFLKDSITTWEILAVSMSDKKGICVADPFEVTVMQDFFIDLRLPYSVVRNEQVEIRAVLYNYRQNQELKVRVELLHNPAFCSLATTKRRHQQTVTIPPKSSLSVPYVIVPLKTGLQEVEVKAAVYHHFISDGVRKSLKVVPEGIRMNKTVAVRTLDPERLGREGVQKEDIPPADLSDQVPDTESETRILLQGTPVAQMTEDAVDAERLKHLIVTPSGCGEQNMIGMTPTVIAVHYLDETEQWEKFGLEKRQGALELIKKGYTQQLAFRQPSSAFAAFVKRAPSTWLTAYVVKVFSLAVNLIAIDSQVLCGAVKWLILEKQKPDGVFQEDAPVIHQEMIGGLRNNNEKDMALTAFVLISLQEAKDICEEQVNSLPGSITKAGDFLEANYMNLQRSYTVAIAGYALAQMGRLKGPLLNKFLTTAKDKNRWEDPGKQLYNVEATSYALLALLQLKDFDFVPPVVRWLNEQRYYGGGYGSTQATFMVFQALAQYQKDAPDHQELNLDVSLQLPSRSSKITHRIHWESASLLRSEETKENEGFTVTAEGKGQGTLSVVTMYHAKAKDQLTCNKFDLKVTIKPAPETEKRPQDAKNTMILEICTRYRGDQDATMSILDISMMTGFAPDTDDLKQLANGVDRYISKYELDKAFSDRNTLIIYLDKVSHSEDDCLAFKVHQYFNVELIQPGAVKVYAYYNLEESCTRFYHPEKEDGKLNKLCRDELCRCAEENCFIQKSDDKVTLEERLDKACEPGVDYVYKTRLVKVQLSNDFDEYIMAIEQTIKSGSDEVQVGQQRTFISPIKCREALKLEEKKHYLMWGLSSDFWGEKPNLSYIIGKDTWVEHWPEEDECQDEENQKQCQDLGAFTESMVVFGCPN

[2] = biological target: T1, Human C3b, site-specifically …; test: SPR; remark: listed apart in the source

Binder	Kd [1]	half-life of the complex [1]	koff [1]	binding result [2]
B1	110 pM	~1 h	0.000187 s⁻¹	
B2				binds
